The target in experiment [1] is RIFIN (co-IP of the LAIR1 mutation series, Fig. 2c). The experiment in a line: co-immunoprecipitation (Protein A Co-IP, SDS-PAGE band quantification). The following applies: LAIR1 Fc tag; RIFIN-V2 MBP tag; n = 3 independent measurements; parent: est. 3.0; read off a plot.
Experiment [2] deals with RIFIN (co-IP of the LAIR1 mutation series, Fig. 2c) (Plasmodium falciparum 3D7). Put plainly: co-IP; conditioned media incubated with protein A resin for one hour at room temperature; Fc-tagged RIFIN or LAIR1 pulled down, partner without Fc co-pulled down; SDS-PAGE, Coomassie blue, bands quantified with ImageJ.
In experiment [3] the target is T1, RIFIN (PF3D7_1040300) V2 domain, His-tagged (Plasmodium falciparum 3D7, UniProt Q8IJ06 184-328).
T1 construct: RIFIN PF3D7_1040300 (RIF1) of Plasmodium falciparum 3D7, variable domain 2 (V2); PDB 7JZI holds the V2 domain of this RIFIN; also called RIF1; source: Expi293F or Expi293 GnTI- cells, transfected
T1 sequence: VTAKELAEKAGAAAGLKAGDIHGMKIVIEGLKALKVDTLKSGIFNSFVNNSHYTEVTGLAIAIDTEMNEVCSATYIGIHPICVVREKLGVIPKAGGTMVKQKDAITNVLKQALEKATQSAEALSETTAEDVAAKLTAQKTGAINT
The experiment in a line: BLI; fortéBio Octet Red384; His-tagged RIFIN V2 domain immobilised on Ni-NTA biosensors, dipped into LAIR1 or MGD21 in a twofold concentration series; global fit, 1:1 Langmuir model. The following applies: both partners purified. On the technique in general: BLI is a label-free optical method that tracks binding on a fibre tip over time.

Consider “native human LAIR1 (from UniProt Q6GTX8) T151L; N153S; A161T; P190S; P191R”, for which, in experiment [1], the other: % pulldown vs MGD21 (% of MGD21 LAIR1 pulldown) amounted to 58.

The molecule LAIR1 N153S (receptor) yielded a fold increase in affinity over native LAIR1 in experiment [2] of 10 fold.

In the case of LAIR1 T151L (receptor), the fold increase in affinity over native LAIR1 in experiment [2] was found to be 10 fold.

For “native human LAIR1 (from UniProt Q6GTX8) T151L; N153S; P190S; P191R”, in experiment [1], the other: % pulldown vs MGD21 (% of MGD21 LAIR1 pulldown) was 62.

Regarding “native human LAIR1 (from UniProt Q6GTX8) T151L; N153S”, the other: % pulldown vs MGD21 (% of MGD21 LAIR1 pulldown) in experiment [1] amounted to 66.

B1: native human LAIR1 (receptor)
chain: QEEDLPRPSISAEPGTVIPLGSHVTFVCRGPVGVQTFRLERDSRSTYNDTEDVSQASPSESEARFRIDSVREGNAGLYRCIYYKPPKWSEQSDYLELLVKE
modifications: N-linked glycosylation at N153 (MGD21 numbering)
notes: Leukocyte-associated immunoglobulin-like receptor 1 (LAIR1), human, unmutated; Probably the same limits as the MGD21 LAIR1 ectodomain; also called hLAIR1; unmutated (native) LAIR1; source: Expi293F or Expi293 GnTI- cells, transfected
In turn, B1 yielded a Kd in experiment [3] of over 1000 nM.

The Kd is the constant that tells how readily two partners part at equilibrium.
